Measurements published in US20190360025A1.
Blank lines part the entries; values can stand above or below the substance they belong to.

Experiments:
[1] = target: tumor necrosis factor alpha (TNF-α), R&D Systems 210-TA-005 (UniProt P01375); experiment: c-PLA 1X probes, human plasma; TNF-α 1.00E-12 M
[2] = target: tumor necrosis factor alpha (TNF-α), R&D Systems 210-TA-005 (UniProt P01375); experiment: t-PLA 10X probes, human plasma; TNF-α 1.00E-12 M
[3] = target: tumor necrosis factor alpha (TNF-α), R&D Systems 210-TA-005 (UniProt P01375); experiment: c-PLA, buffer; TNF-α 1.00E-12 M
[4] = target: tumor necrosis factor alpha (TNF-α), R&D Systems 210-TA-005 (UniProt P01375); experiment: c-PLA 10X probes, human plasma; TNF-α 1.00E-08 M
[5] = target: tumor necrosis factor alpha (TNF-α), R&D Systems 210-TA-005 (UniProt P01375); experiment: c-PLA 1X probes, buffer; TNF-α 1.00E-09 M
[6] = target: tumor necrosis factor alpha (TNF-α), R&D Systems 210-TA-005 (UniProt P01375); experiment: c-PLA 10X probes, human plasma; TNF-α 1.00E-11 M
[7] = target: tumor necrosis factor alpha (TNF-α), R&D Systems 210-TA-005 (UniProt P01375); experiment: c-PLA 10X probes, buffer; TNF-α 1.00E-08 M
[8] = target: tumor necrosis factor alpha (TNF-α), R&D Systems 210-TA-005 (UniProt P01375); experiment: c-PLA 10X probes, buffer; TNF-α 1.00E-09 M
[9] = target: tumor necrosis factor alpha (TNF-α), R&D Systems 210-TA-005 (UniProt P01375); experiment: c-PLA 10X probes, human plasma; TNF-α 1.00E-10 M
[10] = target: tumor necrosis factor alpha (TNF-α), R&D Systems 210-TA-005 (UniProt P01375); experiment: t-PLA, buffer; TNF-α 1.00E-10 M
[11] = target: tumor necrosis factor alpha (TNF-α), R&D Systems 210-TA-005 (UniProt P01375); experiment: c-PLA, buffer; TNF-α 1.00E-11 M
[12] = target: tumor necrosis factor alpha (TNF-α), R&D Systems 210-TA-005 (UniProt P01375); experiment: t-PLA 1X probes, human plasma; TNF-α 1.00E-12 M
[13] = target: tumor necrosis factor alpha (TNF-α), R&D Systems 210-TA-005 (UniProt P01375); experiment: c-PLA 1X probes, human plasma; TNF-α 1.00E-11 M
[14] = target: tumor necrosis factor alpha (TNF-α), R&D Systems 210-TA-005 (UniProt P01375); experiment: t-PLA 10X probes, buffer; TNF-α 5.00E-07 M
[15] = target: tumor necrosis factor alpha (TNF-α), R&D Systems 210-TA-005 (UniProt P01375); experiment: SPR (Biacore T200), 1:1 global fit
[16] = target: tumor necrosis factor alpha (TNF-α), R&D Systems 210-TA-005 (UniProt P01375); experiment: t-PLA 10X probes, human plasma; TNF-α 1.00E-09 M
[17] = target: vascular endothelial growth factor (VEGF), R&D Systems 293-VE-010 (human) (UniProt P15692); experiment: c-PLA, buffer; VEGF 1.00E-13 M
Sequence of UniProt P15692 (P15692 other isoform, or with tags, fused parts or gaps limits assumed): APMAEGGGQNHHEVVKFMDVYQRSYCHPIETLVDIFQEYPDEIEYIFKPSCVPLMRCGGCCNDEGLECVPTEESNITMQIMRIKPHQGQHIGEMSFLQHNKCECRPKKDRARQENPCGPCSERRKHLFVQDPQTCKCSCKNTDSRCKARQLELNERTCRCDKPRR

[18] = target: vascular endothelial growth factor (VEGF), R&D Systems 293-VE-010 (human) (UniProt P15692); experiment: t-PLA, chicken plasma; VEGF 1.00E-10 M
[19] = target: vascular endothelial growth factor (VEGF), R&D Systems 293-VE-010 (human) (UniProt P15692); experiment: t-PLA, chicken plasma; VEGF 1.00E-13 M
[20] = target: vascular endothelial growth factor (VEGF), R&D Systems 293-VE-010 (human) (UniProt P15692); experiment: c-PLA, human plasma; VEGF 1.00E-12 M
[21] = target: vascular endothelial growth factor (VEGF), R&D Systems 293-VE-010 (human) (UniProt P15692); experiment: t-PLA with preamplification; VEGF 1.00E-14 M
[22] = target: vascular endothelial growth factor (VEGF), R&D Systems 293-VE-010 (human) (UniProt P15692); experiment: t-PLA with preamplification; VEGF 1.00E-13 M
[23] = target: vascular endothelial growth factor (VEGF), R&D Systems 293-VE-010 (human) (UniProt P15692); experiment: c-PLA, human plasma; VEGF 1.00E-09 M
[24] = target: vascular endothelial growth factor (VEGF), R&D Systems 293-VE-010 (human) (UniProt P15692); experiment: c-PLA, chicken plasma; VEGF 1.00E-10 M
[25] = target: vascular endothelial growth factor (VEGF), R&D Systems 293-VE-010 (human) (UniProt P15692); experiment: t-PLA, chicken plasma; VEGF 1.00E-14 M
[26] = target: vascular endothelial growth factor (VEGF), R&D Systems 293-VE-010 (human) (UniProt P15692); experiment: t-PLA, human plasma; VEGF 1.00E-12 M
[27] = target: vascular endothelial growth factor (VEGF), R&D Systems 293-VE-010 (human) (UniProt P15692); experiment: t-PLA, buffer; VEGF 1.00E-09 M
[28] = target: vascular endothelial growth factor (VEGF), R&D Systems 293-VE-010 (human) (UniProt P15692); experiment: c-PLA, chicken plasma; VEGF 1.00E-13 M
[29] = target: vascular endothelial growth factor (VEGF), R&D Systems 293-VE-010 (human) (UniProt P15692); experiment: SPR (Biacore T200), 1:1 global fit

Sequence of UniProt P01375 (P01375 77-233 limits assumed): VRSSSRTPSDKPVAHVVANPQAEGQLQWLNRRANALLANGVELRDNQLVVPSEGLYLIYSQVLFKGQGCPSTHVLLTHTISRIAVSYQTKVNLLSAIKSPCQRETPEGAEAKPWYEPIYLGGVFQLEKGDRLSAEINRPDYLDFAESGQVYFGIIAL

Substance: affinity-purified polyclonal anti-TNF-α antibody (R&D Systems AF-210-NA)
Counts [1]: 75.9
SBR [2]: 2.4
Counts [3]: 4.62
Counts [4]: 158000
SBR [4]: 73
Counts [5]: 3700
SBR [5]: 232
Counts [6]: 2970
SBR [6]: 1.4
Counts [7]: 359000
SBR [7]: 1960
Counts [8]: 80000
SBR [8]: 437
Counts [9]: 7420
SBR [10]: 15.9
Counts [11]: 22.1
Counts [12]: 154000
Counts [13]: 105
SBR [13]: 1.4
Counts [14]: 2.24e+09
SBR [14]: 392
Kd [15]: 0.279 nM
Counts [16]: 8.87e+07
SBR [16]: 7.8

Counts [17]: 272
SBR [17]: 9.1
Counts [18]: 9.58e+07
SBR [18]: 1430
Counts [19]: 133000
Counts [20]: 408
SBR [20]: 1.6
Counts [21]: 363000
Counts [22]: 577000
SBR [22]: 3.3
Counts [23]: 40500
SBR [23]: 156
Counts [24]: 26800
SBR [24]: 2900
Counts [25]: 71600
SBR [25]: 1.1
Counts [26]: 2.06e+06
SBR [26]: 1.3
Counts [27]: 3.98e+09
SBR [27]: 11500
Counts [28]: 29
SBR [28]: 3.1
Kd [29]: 0.0036 nM
Substance: affinity-purified polyclonal anti-VEGF antibody (R&D Systems AF-293-NA)
